According to paper PMC3140434 (Journal of molecular biology, 2011):

Key:
[1] = target: Rev (Human immunodeficiency virus 1) (UniProt P04325); assay: fluorescence; conditions: cited from earlier work
[2] = target: the molecule itself; assay: single-molecule TIRF fluorescence microscopy

Sequence of DDX1 (Q92499 whole entry): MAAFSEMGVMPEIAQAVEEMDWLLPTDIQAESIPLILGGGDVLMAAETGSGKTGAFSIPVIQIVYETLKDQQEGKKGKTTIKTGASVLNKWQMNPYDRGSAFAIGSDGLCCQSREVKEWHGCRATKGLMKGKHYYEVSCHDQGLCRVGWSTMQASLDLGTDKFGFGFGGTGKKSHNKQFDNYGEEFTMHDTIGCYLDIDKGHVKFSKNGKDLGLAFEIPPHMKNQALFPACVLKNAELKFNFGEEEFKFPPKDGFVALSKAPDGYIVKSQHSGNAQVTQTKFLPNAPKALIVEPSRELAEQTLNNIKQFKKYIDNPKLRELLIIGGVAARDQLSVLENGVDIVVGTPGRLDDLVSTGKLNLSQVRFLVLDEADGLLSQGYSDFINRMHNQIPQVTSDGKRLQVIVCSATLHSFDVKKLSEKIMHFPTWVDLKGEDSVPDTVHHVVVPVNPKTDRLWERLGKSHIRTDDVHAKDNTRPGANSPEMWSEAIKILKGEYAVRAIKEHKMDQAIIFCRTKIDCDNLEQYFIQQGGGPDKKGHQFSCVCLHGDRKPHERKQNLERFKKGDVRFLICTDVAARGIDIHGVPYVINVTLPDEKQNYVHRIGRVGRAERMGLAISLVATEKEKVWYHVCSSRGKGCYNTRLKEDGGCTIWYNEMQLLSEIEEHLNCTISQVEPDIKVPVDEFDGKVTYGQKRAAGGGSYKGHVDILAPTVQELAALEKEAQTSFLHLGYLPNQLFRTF

| Molecule | Kd [1] | Kd [2] | stoichiometry N [2] |
| --- | --- | --- | --- |
| DDX1 (from UniProt Q92499) | 36 nM | – | – |
| HIV-1 Rev (recombinant construct with N-terminal extension, both native cysteines changed to serine, labeled with Alexa-Fluor 555) (natural protein) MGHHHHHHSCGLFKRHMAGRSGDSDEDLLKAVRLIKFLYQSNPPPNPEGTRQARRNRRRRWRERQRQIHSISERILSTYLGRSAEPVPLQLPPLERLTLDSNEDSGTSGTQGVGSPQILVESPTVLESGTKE | – | ~1.5 nM | ≤ 8 Rev monomers on one RRE |
